Experimental data reported in paper PMC12319226 (Frontiers in Bioinformatics, 2025).

Experiments:
Assay in all cases: BLI
mAb JAR5 (mouse) (mouse) = target: mAb JAR5 (mouse) (mouse)
[1] = target: chimeric antibody hJAR5 (mouse variable, human constant)
fHbp m002416 = target: T1, fHbp m002416 (Neisseria meningitidis, fHbp v3.28/v1.1 …, point mutant); settings: both partners purified
T1 construct: also called fHbp 2,416; Round 2 best mutant
T1 chain: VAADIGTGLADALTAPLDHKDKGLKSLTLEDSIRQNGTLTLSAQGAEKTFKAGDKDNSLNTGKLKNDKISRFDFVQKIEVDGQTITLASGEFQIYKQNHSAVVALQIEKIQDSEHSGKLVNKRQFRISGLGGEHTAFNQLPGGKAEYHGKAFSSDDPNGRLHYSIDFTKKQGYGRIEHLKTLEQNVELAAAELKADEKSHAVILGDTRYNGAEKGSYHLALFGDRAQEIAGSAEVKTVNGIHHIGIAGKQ

[2] = target: T2, Neisseria meningitidis factor H binding protein variant 1.1 (Neisseria meningitidis, UniProt Q9JXV4); settings: both partners purified
T2 construct: also called fHbp v1.1; fHbp variant 1.1

[3] = target: T3, Neisseria meningitidis factor H binding protein variant 3.28 (Neisseria meningitidis, fHbp variant …, strain); settings: both partners purified
T3 construct: also called fHbp v3.28; fHbp variant 3.28
T3 chain: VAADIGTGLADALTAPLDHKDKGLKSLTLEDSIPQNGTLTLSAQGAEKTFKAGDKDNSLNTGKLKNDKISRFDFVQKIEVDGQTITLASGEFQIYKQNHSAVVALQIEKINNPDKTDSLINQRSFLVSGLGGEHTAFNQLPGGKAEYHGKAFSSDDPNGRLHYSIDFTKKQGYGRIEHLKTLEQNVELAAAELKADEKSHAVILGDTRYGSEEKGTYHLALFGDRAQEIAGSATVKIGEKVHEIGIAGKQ

[4] = target: T4, factor H binding protein variant 3.28 (Neisseria meningitidis, fHbp variant …); settings: both partners purified
T4 construct: also called fHbp v3.28; v3.28 Control (0002)
T4 chain: T3 chain

[5] = target: T5, factor H binding protein variant 1.1 (Neisseria meningitidis serogroup B …, UniProt Q9JXV4); settings: both partners purified
T5 construct: also called fHbp v1.1; v1.1 Control (0001)

[6] = target: T4, factor H binding protein variant 3.28; settings: both partners purified
fHbp m000019 = target: T6, fHbp m000019 (Neisseria meningitidis, fHbp v1.1 …, point mutant); settings: both partners purified
T6 construct: also called Round 1 best mutant
T6 chain: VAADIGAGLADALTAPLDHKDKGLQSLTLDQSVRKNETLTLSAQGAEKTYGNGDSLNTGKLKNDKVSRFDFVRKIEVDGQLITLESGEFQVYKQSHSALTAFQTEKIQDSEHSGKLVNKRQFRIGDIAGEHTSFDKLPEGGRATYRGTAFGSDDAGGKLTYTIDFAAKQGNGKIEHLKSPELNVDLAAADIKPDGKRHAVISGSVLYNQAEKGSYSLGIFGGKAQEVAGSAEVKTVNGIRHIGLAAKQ

“fHbp m000006 (from UniProt E6MV22 20-274) (natural protein)” showed a Kd (mAb JAR5 (mouse) (mouse)) of under 0.001 nM, a koff (mAb JAR5 (mouse) (mouse)) of under 1e-07 s⁻¹ and a kon (mAb JAR5 (mouse) (mouse)) of 642000 M⁻¹ s⁻¹. For the same molecule, the Kd [1] was 0.922 nM, the koff [1] was 0.000499 s⁻¹ and the kon [1] was 541000 M⁻¹ s⁻¹.

B1: chimeric antibody hJAR5 (antibody, V domains shown)
VH: QVQMQQPGAELVKPGASVKLSCKASGYTFISYWMHWVKQRPGRGLEWIGRIAPDTGIIYYNEKFKNKATLTVDTPSSTAYMQLNSLTSEDSAVYYCARYLKYDGSTYRFDYWGQGTTLTVSS
VL: DIVMTQAAPSVPVTPGESVSISCRSSKSLLHSNGNTYLFWFLQRPGQSPQLLIYRMSNLASGVPDRFSGSGSGTSFTLRISRVEAEDVGVYYCMQHLEYPYTFGGGTKLEIK
B1 gave a Kd (fHbp m002416) of 0.631 nM.

B2: chimeric antibody h12C1 (antibody, V domains shown)
VH: QVQLQESGPELVKPGASVKISCKASGYSFSDYNMSWVKQSNGKSLEWIGIIDPKYGTINYNQKFKGKATLTVDQASSTAYMQLNSLTSEDSAVYYCVRDYYGSSYFDYWGQGTTLTVSS
VL: DIVLTQSPSSIYASLGERVTLTCKASQDIHNYLNWFQQKPGKSPKTLIYRANRLVDGVPSRFSGGGSGQDYSLTISSLEFEDIGIYYCLQYDEFPPTFGGGTRLEIK
notes: also called humanized 12C1 mAb; source: Expi293, transient transfection, purified (MabSelect SuRe, SEC)
In the case of B2, the Kd [2] is reported as 0.1 to 0.8 nM and the Kd (fHbp m002416) is reported as 0.293 nM.

B3: human mAb 1A12 (antibody, V domains shown)
VH: EVQLVQSGAELKKPGESLKISCKASGYTFTNYWVVWVRQMPGEGLEWMGSIHPRDSDARYSLSFEGRVTFSVDKSTTTAYLQWSSLKVSDSAIYYCARLSQVSGWSPWVGPWGQGTLVTVSS
VL: DIVMTQSPSSLSASVGDRVTITCRASQSISVSLNWYQQKPGKAPKVLIYAASRLQSGIPSRFSGSGSGSHFTLTISSLQPEDFATYYCQETYSDLMYTFGQGTKVEIK
notes: source: Expi293, transient transfection, purified (MabSelect SuRe, SEC)
B3 gave a Kd [3] of 7 to 20 nM.

B4: mAb 1A12 (human) (antibody, V domains shown)
VH: B3 VH
VL: B3 VL
notes: source: Expi293, purified (MabSelect SuRe, SEC); copies: 2 + 2
For B4, the Kd [4] was 65.9 nM, the Kd [5] was under 0.001 nM and the Kd [6] was 20.4 nM.

B5: human mAb 1E6 (antibody, V domains shown)
VH: EVQLVQSGAEVKKPGSSVKVSCKASGGTVIDYPITWVRQAPGQGLEWVGGFVPLFRTSNYGQKFQGRVTITADKSTSTASMELNSLTSEDTAIYYCARGDTAMGPFDYWGQGTLVTVSS
VL: SYVLTQPPSLSVAPGKTATLTCGGNNIAGKTVHWYQQRPGQAPVLVISYDSDRPSGIPERFSGSNSANTATLTISRVEAGDEADYYCQVWDRNSDHWVFGGGTKLTVL
notes: as for B3
B5 showed a Kd (fHbp m000019) of 0.8 nM, a Kd [3] of 2 to 4 nM and a Kd [2] of 3 to 10 nM. The Kd (fHbp m002416) was 0.32 nM.

B6: human mAb 4B3 (antibody, V domains shown)
VH: QVQLVQSGGGLVKPGGSLRLSCAASGFPFSSYYMSWIRQAPGKGLEWVSDINNSGNVKEYADFVKGRLTISRDNVKNSMYLHMNSLRVEDTAVYYCARNRGRFDVWGQGTLVTVSA
VL: EIVMTQSPGTLSLSPGETATLSCRASQMISSPFLAWYQQRRGQAPRLLIYGASTRATDTPDRFRGSGSGTDFILTISRLEPEDFAVYYCQYYDDSPFTFGQGTKLEIK
notes: as for B3
With B6 the Kd (fHbp m000019) was 2.4 nM, the Kd [3] was 5 to 6 nM and the Kd [2] was 1 to 5 nM. The Kd (fHbp m002416) was 3.8 nM.
